In test [1] the target is FlaK D236A with a C-terminal His6-tag (Vibrio alginolyticus). As to the kind of experiment: cross-linking.
Test [2] addresses FlaK E237Q with a C-terminal His6-tag (Vibrio alginolyticus). The test is described as follows: cross-linking.
Test [3] has as its target FlaK I365E with a C-terminal His6-tag (Vibrio alginolyticus). The test is described as follows: SEC. For orientation: SEC sorts molecules by how far they enter the pores of the column.
For test [4] the target is unchanged. The test is described as follows: cross-linking.
Test [5] addresses FlaK K171A with a C-terminal His6-tag (Vibrio alginolyticus). As to the kind of experiment: SEC.
Test [6] has the same target. As to the kind of experiment: cross-linking.
For test [7] the target is unchanged. As to the kind of experiment: cross-linking + SEC.
Test [8] has as its target FlaK L371E with a C-terminal His6-tag (Vibrio alginolyticus). The test is described as follows: cross-linking.
Test [9] addresses FlaK Q140E with a C-terminal His6-tag (Vibrio alginolyticus). As to the kind of experiment: cross-linking.
The target in test [10] is FlaK, wild type, with a C-terminal His6-tag (Vibrio alginolyticus). The test is described as follows: SEC.
The target is the same in test [11]. As to the kind of experiment: cross-linking.
Test [12] shares this target. The test is described as follows: cross-linking + SEC.

Where “and” joins values, the source holds several entries; their conditions need not be identical. Equal entries are not always repeated.

Our source for the stoichiometry N values is paper doi:10.1101/2022.08.19.504623.

In the case of “FlaK D236A with a C-terminal His6-tag (natural protein)”, in [1], the stoichiometry N was 2.

“FlaK E237Q with a C-terminal His6-tag (natural protein)”: the stoichiometry N in test [2] worked out at 2.

As to “FlaK I365E with a C-terminal His6-tag (natural protein)”, the stoichiometry N in [3] and in test [4] was 2 throughout.

With “FlaK K171A with a C-terminal His6-tag (natural protein)”, the stoichiometry N in test [5] was 2; in test [6] it was 2; in [7], 4 and 6.

With “FlaK L371E with a C-terminal His6-tag (natural protein)”, in test [8], the stoichiometry N worked out at 2.

In test [9], “FlaK Q140E with a C-terminal His6-tag (natural protein)” gave a stoichiometry N of 2.

As to “FlaK, wild type, with a C-terminal His6-tag (natural protein)”, the stoichiometry N in [10] was 2; in test [11] it was 2; in test [12] it was 4 and 6.

In general, stoichiometry N refers to a count of units in the complex or per binding partner.
